We go through 1 substance from patent US20150301040A1.

In test [1] the target is human IGF1R-luciferase fusion protein (IGF1R-Luc) (human). Briefly: bridge assay: immobilized IGF1R-PGA14tag, antibody, IGF1R-Luc.
Test [2] has the same target. As to the kind of experiment: bridge assay: immobilized IGF1R-PGA14tag, antibody at 3 ng/ml, IGF1R-Luc.
Test [3] shares this target. Briefly: bridge assay: immobilized IGF1R-PGA14tag, antibody at 12 ng/ml, IGF1R-Luc.
Test [4] has the same target. Briefly: bridge assay: immobilized IGF1R-PGA14tag, antibody at 49 ng/ml, IGF1R-Luc.
For test [5] the target is unchanged. As to the kind of experiment: bridge assay: immobilized IGF1R-PGA14tag, antibody at 0.2 ng/ml, IGF1R-Luc.
The target is the same in test [6]. Briefly: bridge assay: immobilized IGF1R-PGA14tag, antibody at 0.8 ng/ml, IGF1R-Luc.
For test [7] the target is unchanged. Briefly: bridge assay: immobilized IGF1R-PGA14tag, antibody at 195 ng/ml, IGF1R-Luc.
For test [8] the target is unchanged. Briefly: bridge assay: immobilized IGF1R-PGA14tag, antibody at 781 ng/ml, IGF1R-Luc.
The target is the same in test [9]. Briefly: bridge assay: immobilized IGF1R-PGA14tag, antibody at 0.05 ng/ml, IGF1R-Luc.
Test [10] has the same target. As to the kind of experiment: bridge assay: immobilized IGF1R-PGA14tag, antibody at 3125 ng/ml, IGF1R-Luc.
For test [11] the target is unchanged. Briefly: bridge assay: immobilized IGF1R-PGA14tag, antibody at 12500 ng/ml, IGF1R-Luc.
For test [12] the target is unchanged. As to the kind of experiment: bridge assay: immobilized IGF1R-PGA14tag, antibody at 50000 ng/ml, IGF1R-Luc.

Chain of human IGF1R-luciferase fusion protein (IGF1R-Luc) (human) (chain, as listed by the source limits assumed): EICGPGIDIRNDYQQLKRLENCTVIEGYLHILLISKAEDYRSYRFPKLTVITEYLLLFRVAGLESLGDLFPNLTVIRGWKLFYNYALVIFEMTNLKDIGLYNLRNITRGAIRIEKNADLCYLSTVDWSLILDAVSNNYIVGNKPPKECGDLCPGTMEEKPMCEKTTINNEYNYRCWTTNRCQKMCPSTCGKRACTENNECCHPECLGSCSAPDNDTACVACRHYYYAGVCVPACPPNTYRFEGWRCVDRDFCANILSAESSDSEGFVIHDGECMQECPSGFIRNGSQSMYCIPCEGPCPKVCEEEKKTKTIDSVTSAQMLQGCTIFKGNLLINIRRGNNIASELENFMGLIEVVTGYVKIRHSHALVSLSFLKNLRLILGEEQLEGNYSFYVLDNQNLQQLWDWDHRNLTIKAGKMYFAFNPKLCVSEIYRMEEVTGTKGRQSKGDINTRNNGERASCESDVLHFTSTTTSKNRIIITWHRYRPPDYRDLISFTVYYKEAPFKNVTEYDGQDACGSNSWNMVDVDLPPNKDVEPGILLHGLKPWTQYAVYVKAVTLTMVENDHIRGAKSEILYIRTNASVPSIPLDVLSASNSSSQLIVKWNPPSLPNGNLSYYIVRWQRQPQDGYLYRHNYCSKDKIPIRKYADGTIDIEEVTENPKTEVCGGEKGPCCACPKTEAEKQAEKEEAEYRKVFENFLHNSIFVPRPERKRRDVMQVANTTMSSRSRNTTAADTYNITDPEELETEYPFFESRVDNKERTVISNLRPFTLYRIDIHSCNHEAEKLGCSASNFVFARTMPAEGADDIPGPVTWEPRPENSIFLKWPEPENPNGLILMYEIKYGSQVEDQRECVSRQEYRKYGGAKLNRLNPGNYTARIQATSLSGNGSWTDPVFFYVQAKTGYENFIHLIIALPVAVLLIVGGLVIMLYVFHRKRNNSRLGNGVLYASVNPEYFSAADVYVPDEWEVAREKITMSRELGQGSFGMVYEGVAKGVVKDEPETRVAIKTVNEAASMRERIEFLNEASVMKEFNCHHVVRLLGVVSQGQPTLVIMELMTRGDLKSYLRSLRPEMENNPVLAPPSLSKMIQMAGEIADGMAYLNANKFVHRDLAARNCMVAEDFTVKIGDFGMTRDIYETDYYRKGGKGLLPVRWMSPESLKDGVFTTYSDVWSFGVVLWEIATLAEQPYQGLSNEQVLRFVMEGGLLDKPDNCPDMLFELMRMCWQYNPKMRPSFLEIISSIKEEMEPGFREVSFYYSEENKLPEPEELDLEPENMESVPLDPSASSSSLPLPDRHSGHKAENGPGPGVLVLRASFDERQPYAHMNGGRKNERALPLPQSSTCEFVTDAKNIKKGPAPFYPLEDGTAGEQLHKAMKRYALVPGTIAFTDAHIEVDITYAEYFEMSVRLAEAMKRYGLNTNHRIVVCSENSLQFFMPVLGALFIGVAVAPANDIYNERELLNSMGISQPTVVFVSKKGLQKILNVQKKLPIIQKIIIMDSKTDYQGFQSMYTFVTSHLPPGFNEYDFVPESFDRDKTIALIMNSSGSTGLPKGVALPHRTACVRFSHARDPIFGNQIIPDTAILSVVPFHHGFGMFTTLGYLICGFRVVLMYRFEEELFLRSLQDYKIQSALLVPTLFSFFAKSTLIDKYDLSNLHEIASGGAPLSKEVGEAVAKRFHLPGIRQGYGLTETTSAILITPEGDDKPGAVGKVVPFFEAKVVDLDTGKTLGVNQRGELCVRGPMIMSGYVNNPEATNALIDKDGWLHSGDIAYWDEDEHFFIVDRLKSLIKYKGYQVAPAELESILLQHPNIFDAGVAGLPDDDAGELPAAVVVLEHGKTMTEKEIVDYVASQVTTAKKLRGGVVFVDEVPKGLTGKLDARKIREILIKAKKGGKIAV

The substance “Monoclonal antibody to the extracellular domain of IGF1R (anti-IGF1R clone#24-75, Millipore, USA)” registered a detection limit in test [1] of 0.2 ng/mL. Moreover, the RLU bound turned out to be 11800 RLU in test [2]; 27000 RLU in [3]; 88900 RLU in test [4]; 5900 RLU in test [5]; 8860 RLU in test [6]; 235000 RLU in test [7]. The RLU bound in test [8] is 476000 RLU; in test [9], 5370 RLU; in test [10], 627000 RLU; in test [11] it was 767000 RLU; in test [12] it was 805000 RLU.
